Assay results taken from US7294496B1, “Cloned human lysophospholipase” (The Regents of the University of California, priority 2000, dated 2007).

Assays:
Format in all cases: biochemical
[1] = PLA2 activity assay toward PAPC; conditions: 100 mM Hepes, 2 mM DTT
Method: (§1) The protein concentration was determined by the Bio-Rad protein assay, using bovine serum albumin (BSA) as standard. Protein purity was examined using 12% SDS-PAGE and Coomassie blue staining. LysoPLA activity was measured at 40° C. in the assay buier containing LysoPC, 100 mM Tris-HCl (pH 8.0) and 10 mM LMe. Cold 1-palmitoyl-sn-glycero-3-phosphorylcholine (125 μM, unless indicated otherwise) was mixed with 1-[14 C]palmitoyl-sn-glycero-3-phosphorylcholine (100,000 cpm) in a total volume of 0.5 ml. The assay was initiated by adding an aliquot of enzyme solution to the substrate mixture and incubating for the desired time. The released fatty acid was extracted by the modified Dole method and then quantified by scintillation counting. The PLA2 activity assay was carried out, using various ^14C-labeled phospholipid substrates under various conditions as given in the text. The rat brain iPLA2 was purified as described elsewhere (H. C. Yang et al., manuscript in preparation incorporated herein). Human recombinant cPLA2 was a gift from Drs. J. D. Sharp and R. M. Kramer at Lilly Laboratories. 1-[^14C]Palmitoyl-sn-glycero-3-phosphorylcholine and 1-palmitoyl-2-[1-^14C]palmitoyl-sn-glycerol-3-phosphorylcholine were purchased from Amersham. 1-Palmitoyl-2-[1-^14C]arachidonoyl-sn-glycerol-3-phosphorylcholine was purchased from DuPont-NEN. All unlabeled phospholipids were purchased from Avanti Polar Lipids. Triton X-100 (TX-100) and PIP2 were obtained from CalBiochem.
(§2) When we first purified the mouse LysoPLA from P388D1 cells, no other enzymatic activities (PLA1, PLA2, acyltransferase, transacylase and esterase) were found. Therefore, it appears to be a LysoPL-specific LysoPLA. Similar results were obtained for the rat LysoPLA and the relative rates towards different LysoPL substrates were reported [Sugimoto et al., (1996) J. Biol. Chem. 271, 7705-11]. However, a recently sequenced rabbit enzyme that shares high sequence homology (approx. 97%) to the rat/mouse LysoPLA was reported to have both PLA2 and LysoPLA activities [Portilla, et al., […] J. Am. Soc.Nephrol. 9, 1178-86]. The specific activities, however, were only 10 nmol/min/mg for PLA2 activity and 20 nmol/min/mg for LysoPLA activity. The PLA2 activity was also reported to be selective for PlsCho substrate with arachidonic acid at the sn2 position. To determine whether hLysoPLA also expresses PLA2 activity, we have explored its ability to hydrolyze arachidonic acid labeled PlsCho as well as other phospholipid substrates under a variety of conditions.

[2] = PLA2 activity assay toward plasmenylcholine; conditions: for Activity: 100 mM Hepes, 2 mM DTT
Method: as §1
The sn-2 labeled PlsCho (plasmenylcholine or 1-O— (Z)-1P-alkenyl-2-arachidonoyl-sn-glycero-3-phosphocholine) was synthesized as follows. A total of 4 μmol [1-14C]arachidonic acid (from NEN, with specific activity […]) was diluted 10 times with cold arachidonic acid in 250 μl distilled methylene chloride (Fisher Scientific). To this 0.04 mmol p(N,N-dimethyl)amino pyridine (Aldrich) and 0.08 mmol 1,3-dicyclohexyl carbodiimide (Aldrich) were added to yield the arachidonoyl anhydride upon 1 h of stirring. Lysoplasmenylcholine (0.06 mmol, from Serdary) dissolved in 200 μl methylene chloride and 50 μl pyridine (Fisher Scienticc) was added to the arachidonoyl anhydride solution with 0.03 μmol dimethylaminopyridine and left stirring for 8 h. The reaction progress was monitored by thin layer chromatography (Merck) using a mobile phase of chloroform:methanol:triethyl amine:water (65:30:1.5:3.5), and retardation factors were 0.6 and 0.2 for PlsCho and LysoPlsCho, respectively. The separation of the product was carried out by preparative layer chromatography (Merck) in the above mobile system. The reaction yielded a total of 3.6 mg (7.7 μmol) of radiolabeled PlsCho (specific activity 0.18 μCi/μmol) by quantitative phosphate analysis.
as §2

[3] = PLA2 activity assay toward DPPC; conditions: DPPC/TX-100 mixed micelles (100 μM:400 μM); 100 mM Hepes, pH 7.5, 2 mM DTT, 5 mM EDTA
Method: as §1, §2

Molecule | Activity ([1]; PAPC/PIP2/TX-100 mixed micelles (97 μM:3 μM:400 μM), pH 7.5, 80 μM Ca2+, 0.1 mg/ml BSA) [µmol/min/mg] | Activity ([2]; PisCho/PIP2/TX-100 mixed micelles (100 μM:3 μM:600 μM), pH 7.5, 80 μM Ca2+, 0.1 mg/ml BSA) [µmol/min/mg] | activity toward PlsCho relative to activity toward PAPC ([2]; in the presence of 3 mol % PIP2, same conditions) | Activity [3] [µmol/min/mg] | Activity ([1]; PAPC/TX-100 mixed micelles (100 μM:400 μM), pH 7.5, 5 mM EDTA) [µmol/min/mg] | Activity ([2]; PisCho/TX-100 mixed micelles (100 μM:600 μM), pH 7.5, 5 mM EDTA) [µmol/min/mg] | fold lower activity toward PlsCho than toward DPPC ([2]; TX-100 mixed micelles) [fold] | fold lower activity toward PlsCho than toward PAPC ([2]; TX-100 mixed micelles) [fold]
Human Recombinant cPLA2: human recombinant cytosolic Ca2+-dependent phospholipase A2, gift from Lilly Laboratories (protein, UniProt P47712 1-749, looked up) Cytosolic phospholipase A2: MSFIDPYQHIIVEHQYSHKFTVVVLRATKVTKGAFGDMLDTPDPYVELFISTTPDSRKRTRHFNNDINPVWNETFEFILDPNQENVLEITLMDANYVMDETLGTATFTVSSMKVGEKKEVPFIFNQVTEMVLEMSLEVCSCPDLRFSMALCDQEKTFRQQRKEHIRESMKKLLGPKNSEGLHSARDVPVVAILGSGGGFRAMVGFSGVMKALYESGILDCATYVAGLSGSTWYMSTLYSHPDFPEKGPEEINEELMKNVSHNPLLLLTPQKVKRYVESLWKKKSSGQPVTFTDIFGMLIGETLIHNRMNTTLSSLKEKVNTAQCPLPLFTCLHVKPDVSELMFADWVEFSPYEIGMAKYGTFMAPDLFGSKFFMGTVVKKYEENPLHFLMGVWGSAFSILFNRVLGVSGSQSRGSTMEEELENITTKHIVSNDSSDSDDESHEPKGTENEDAGSDYQSDNQASWIHRMIMALVSDSALFNTREGRAGKVHNFMLGLNLNTSYPLSPLSDFATQDSFDDDELDAAVADPDEFERIYEPLDVKSKKIHVVDSGLTFNLPYPLILRPQRGVDLIISFDFSARPSDSSPPFKELLLAEKWAKMNKLPFPKIDPYVFDREGLKECYVFKPKNPDMEKDCPTIIHFVLANINFRKYRAPGVPRETEEEKEIADFDIFDDPESPFSTFNFQYPNQAFKRLHDLMHFNTLNNIDVIKEAMVESIEYRRQNPSRCSVSLSNVEARRFFNKEFLSKPKA | 21.81 ± 0.09 | 13.58 ± 0.05 | about 60% | – | – | – | – | –
Rat brain iPLA2: Ca2+-independent phospholipase A2 purified from rat brain (protein, UniProt P97570 1-807, looked up) 85/88 kDa calcium-independent …: MQFFGRLVNTLSSVTNLFSNPFRVKEVSLADYASSERVREEGQLILLQNASNRTWDCVLVSPRNPQSGFRLFQLESEADALVNFQQYSSQLPPFYESSVQVLHVEVLQHLTDLIRNHPSWTVTHLAVELGIRECFHHSRIISCANSTENEEGCTPLHLACRKGDSEILVELVQYCHAQMDVTDNKGETAFHYAVQGDNPQVLQLLGKNASAGLNQVNNQGLTPLHLACQMGKQEMVRVLLLCNARCNIMGPGGFPIHTAMKFSQKGCAEMIISMDSNQIHSKDPRYGASPLHWAKNAEMARMLLKRGCDVDSTSASGNTALHVAVTRNRFDCVMVLLTYGANAGARGEHGNTPLHLAMSKDNMEMVKALIVFGAEVDTPNDFGETPAFIASKISKLITRKALLTLLKTVGADYHFPFIQGVSTEQSSAAGPHPFFSLDRTQPPTISLNNLELQDLMPVSRARKPAFILSSMRDEKRSHDHLLCLDGGGVKGLVIIQLLIAIEKASGVATKDLFDWVAGTSTGGILALAILHSKSMAYMRGVYFRMKDEVFRGSRPYESGPLEEFLKREFGEHTKMTDVKKPKVMLTGTLSDRQPAELHLFRNYDAPEAVREPRCTPNINLKPPTQPADQLVWRAARSSGAAPTYFRPNGRFLDGGLLANNPTLDAMTEIHEYNQDMIRKGQGNKVKKLSIVVSLGTGKSPQVPVTCVDVFRPSNPWELAKTVFGAKELGKMVVDCCTDPDGRAVDRARAWCEMVGIQYFRLNPQLGSDIMLDEVSDAVLVNALWETEVYIYEHREEFQKLVQLLLSP | – | – | – | 5.6 ± 0.2 | 2.0 ± 0.04 | 0.53 ± 0.03 | 10 | 4
